For this assay, the target named is death receptor (DR) 3 on mouse mucosal CD4+ T cells (mouse). The assay is described as follows: cell-based or functional assay.

“TL1A added to mouse MLN and LP mononuclear cell cultures (from UniProt Q5UBV8 76-252) (ligand)”: the numbers of IFN-gamma producing CD4+ cells (intracellular staining of LPMC, without vs. with TL1A) is 1 and the numbers of IL-17-producing CD4+ cells (intracellular staining of LPMC, without vs. with TL1A) amounted to 0.89.
